Experimental data taken from patent publication US20160271244A1 (DUKE UNIVERSITY, published 2016).

Legend:
[1] = target: Jo 1; assay: Athena autoantigen assay, mAb 12.5 ug/ml
[2] = target: Histone; assay: Athena autoantigen assay, mAb 12.5 ug/ml
[3] = target: Scl 70; assay: Athena autoantigen assay, mAb 12.5 ug/ml
[4] = target: SSB; assay: Athena autoantigen assay, mAb 12.5 ug/ml
[5] = target: Sm; assay: Athena autoantigen assay, mAb 12.5 ug/ml
[6] = target: SSA; assay: Athena autoantigen assay, mAb 12.5 ug/ml
[7] = target: RNP; assay: Athena autoantigen assay, mAb 12.5 ug/ml
[8] = target: T1, Cent B; assay: Athena autoantigen assay, mAb 12.5 ug/ml
T1 construct: also called centromere B
T1 sequence (P07199 2-599): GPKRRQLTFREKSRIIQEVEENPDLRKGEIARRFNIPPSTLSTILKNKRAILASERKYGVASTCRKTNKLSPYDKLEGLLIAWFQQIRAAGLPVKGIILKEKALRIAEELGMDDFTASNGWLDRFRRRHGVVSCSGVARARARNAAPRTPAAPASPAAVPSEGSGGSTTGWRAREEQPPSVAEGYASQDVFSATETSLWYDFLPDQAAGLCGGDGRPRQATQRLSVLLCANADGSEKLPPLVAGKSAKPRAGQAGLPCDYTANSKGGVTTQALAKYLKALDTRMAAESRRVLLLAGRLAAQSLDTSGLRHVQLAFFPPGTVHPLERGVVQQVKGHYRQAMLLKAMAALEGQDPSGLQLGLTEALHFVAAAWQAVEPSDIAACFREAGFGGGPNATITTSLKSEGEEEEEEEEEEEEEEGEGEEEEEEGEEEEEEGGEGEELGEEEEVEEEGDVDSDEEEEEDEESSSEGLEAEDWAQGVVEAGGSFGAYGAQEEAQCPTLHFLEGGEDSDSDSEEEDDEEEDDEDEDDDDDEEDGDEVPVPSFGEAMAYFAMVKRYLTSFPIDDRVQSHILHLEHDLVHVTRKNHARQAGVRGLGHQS

[9] = target: Jo 1; assay: Athena autoantigen assay, mAb 6.25 ug/ml
[10] = target: Histone; assay: Athena autoantigen assay, mAb 6.25 ug/ml
[11] = target: Scl 70; assay: Athena autoantigen assay, mAb 6.25 ug/ml
[12] = target: SSB; assay: Athena autoantigen assay, mAb 6.25 ug/ml
[13] = target: Sm; assay: Athena autoantigen assay, mAb 6.25 ug/ml
[14] = target: SSA; assay: Athena autoantigen assay, mAb 6.25 ug/ml
[15] = target: RNP; assay: Athena autoantigen assay, mAb 6.25 ug/ml
[16] = target: T1, Cent B; assay: Athena autoantigen assay, mAb 6.25 ug/ml
[17] = target: T2, A244gD+ gp120 (herpes simplex virus; HIV-1); assay: ELISA on monomeric Env
[18] = target: T3, CM 243 gp120 (HIV-1); assay: ELISA on monomeric Env
T3 construct: domain: gp120; also called gp120 CM243

[19] = target: T4, HV00046 (902114 B2 140C) (HIV-1); assay: ELISA on monomeric Env
T4 construct: domain: gp140

[20] = target: Env (gp120) of HIV-1 isolate JRFL (virus) (HIV-1); assay: cell-based or functional assay
[21] = target: Env (gp120) of HIV-1 isolate JRCSF (HIV-1, UniProt P20871 32-848); assay: cell-based or functional assay
[22] = target: Env (gp120) of HIV-1 isolate 7165.18 (HIV-1); assay: cell-based or functional assay
[23] = target: Env (gp120) of HIV-1 JRFL.N160K.E168K (HIV-1); assay: cell-based or functional assay
[24] = target: Env (gp120) of HIV-1 Q23.17.N160K (HIV-1); assay: cell-based or functional assay
[25] = target: Env (gp120) of HIV-1 JRFL.E168K (HIV-1); assay: cell-based or functional assay
[26] = target: Env (gp120) of HIV-1 isolate Q23.17 (HIV-1); assay: cell-based or functional assay
[27] = target: Env (gp120) of HIV-1 7165.18.N160K (HIV-1); assay: cell-based or functional assay
[28] = target: Jo 1; assay: Athena autoantigen assay, mAb 25 ug/ml
[29] = target: Histone; assay: Athena autoantigen assay, mAb 25 ug/ml
[30] = target: Scl 70; assay: Athena autoantigen assay, mAb 25 ug/ml
[31] = target: SSB; assay: Athena autoantigen assay, mAb 25 ug/ml
[32] = target: Sm; assay: Athena autoantigen assay, mAb 25 ug/ml
[33] = target: SSA; assay: Athena autoantigen assay, mAb 25 ug/ml
[34] = target: RNP; assay: Athena autoantigen assay, mAb 25 ug/ml
[35] = target: T1, Cent B; assay: Athena autoantigen assay, mAb 25 ug/ml
[36] = target: T5, MN gp120 (HIV-1, UniProt P05877 32-513); assay: ELISA
T5 construct: domain: gp120

[37] = target: T2, A244gD+ gp120; assay: SPR
[38] = target: T6, A244gD- gp120 (HIV-1); assay: SPR
T6 construct: domain: gp120

[39] = target: T7, HV00044 (6240 TZ5 140C) (HIV-1); assay: SPR
T7 construct: domain: gp140; also called 624008 TA5 gp140; 6240 transmitted founder Env

Sequence of SSB (P05455 whole entry): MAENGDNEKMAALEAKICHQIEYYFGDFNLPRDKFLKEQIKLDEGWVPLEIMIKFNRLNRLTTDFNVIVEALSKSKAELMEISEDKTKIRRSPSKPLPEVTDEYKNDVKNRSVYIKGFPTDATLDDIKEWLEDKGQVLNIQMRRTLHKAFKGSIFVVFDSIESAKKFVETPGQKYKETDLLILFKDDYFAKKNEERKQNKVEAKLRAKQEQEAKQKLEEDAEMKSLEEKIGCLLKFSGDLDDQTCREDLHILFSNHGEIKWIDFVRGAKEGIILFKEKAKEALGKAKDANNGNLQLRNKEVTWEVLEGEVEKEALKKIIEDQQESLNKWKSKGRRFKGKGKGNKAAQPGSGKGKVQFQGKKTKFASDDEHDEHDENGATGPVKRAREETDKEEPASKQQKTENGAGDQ
Sequence of Jo 1 (P12081 2-509): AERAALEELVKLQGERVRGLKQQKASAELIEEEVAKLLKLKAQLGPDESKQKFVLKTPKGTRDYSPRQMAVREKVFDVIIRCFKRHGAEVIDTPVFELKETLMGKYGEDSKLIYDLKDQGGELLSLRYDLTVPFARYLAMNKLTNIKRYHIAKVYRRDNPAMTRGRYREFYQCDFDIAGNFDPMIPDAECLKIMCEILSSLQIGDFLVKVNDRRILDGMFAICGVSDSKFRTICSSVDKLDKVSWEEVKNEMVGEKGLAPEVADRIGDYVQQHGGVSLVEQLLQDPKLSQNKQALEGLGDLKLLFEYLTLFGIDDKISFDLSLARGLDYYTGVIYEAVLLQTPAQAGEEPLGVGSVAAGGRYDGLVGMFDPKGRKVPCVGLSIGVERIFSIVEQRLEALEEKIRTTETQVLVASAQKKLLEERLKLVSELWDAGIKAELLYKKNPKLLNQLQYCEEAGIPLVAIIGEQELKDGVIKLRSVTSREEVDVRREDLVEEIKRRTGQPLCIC

B1: CH01 (antibody, V domains shown)
VH: EVQLVESGANVVRPGGSLRLSCKASGFIFENFGFSWVRQAPGKGLQWVAGLNWNGGDTRYADSVKGRFRMSRDNSRNFVYLDMDKVGVDDTAFYYCARGTDYTIDDAGIHYQGSGTFWYFDLWGRGTLVSVSS
VL: EIVLTQSPGTLSLSPGERATLSCRASHNVHPKYFAWYQQKPGQSPRLLIYGGSTRAAGIPGKFSGSGSGTDFTLTISRVDPEDFAVYYCQQYGGSPYTFGQGTKVEI
notes: also called 1-27-G2; 27G2
- Athena autoreactivity score [1]: 2
- Athena autoreactivity score [2]: 13.5
- Athena autoreactivity score [3]: 2
- Athena autoreactivity score [4]: 5
- Athena autoreactivity score [5]: 3
- Athena autoreactivity score [6]: 5
- Athena autoreactivity score [7]: 4.5
- Athena autoreactivity score [8]: 10
- Athena autoreactivity score [9]: 2
- Athena autoreactivity score [10]: 10
- Athena autoreactivity score [11]: 1.5
- Athena autoreactivity score [12]: 5.5
- Athena autoreactivity score [13]: 2.5
- Athena autoreactivity score [14]: 5.5
- Athena autoreactivity score [15]: 4
- Athena autoreactivity score [16]: 7
- EC50 [17]: 7.8 µM
- EC50 [18]: 12.7 µM
- EC50 [19]: 63.2 µM
- IC50 (virus neutralization) [20]: > 50 µg/mL
- IC80 (virus neutralization) [20]: > 50 µg/mL
- IC50 (virus neutralization) [21]: 0.07 µg/mL
- IC80 (virus neutralization) [21]: > 50 µg/mL
- IC50 (virus neutralization) [22]: 5.82 µg/mL
- IC80 (virus neutralization) [22]: > 50 µg/mL
- IC50 (virus neutralization) [23]: > 50 µg/mL
- IC80 (virus neutralization) [23]: > 50 µg/mL
- IC50 (virus neutralization) [24]: > 50 µg/mL
- IC80 (virus neutralization) [24]: > 50 µg/mL
- IC50 (virus neutralization) [25]: 0.044 µg/mL
- IC80 (virus neutralization) [25]: 0.382 µg/mL
- IC50 (virus neutralization) [26]: 0.014 µg/mL
- IC80 (virus neutralization) [26]: 0.035 µg/mL
- IC50 (virus neutralization) [27]: > 50 µg/mL
- IC80 (virus neutralization) [27]: > 50 µg/mL
- Athena autoreactivity score [28]: 2.5
- Athena autoreactivity score [29]: 17.5
- Athena autoreactivity score [30]: 3
- Athena autoreactivity score [31]: 5.5
- Athena autoreactivity score [32]: 4
- Athena autoreactivity score [33]: 6.5
- Athena autoreactivity score [34]: 5.5
- Athena autoreactivity score [35]: 14
- binding result [36]: no binding
- Kd [37]: 0.0088 µM
- Kd [38]: 0.34 µM
- Kd [39]: 0.3 µM
